Laboratory results published in US20200399358A1 (Sanofi, published 2020).
Residue numbers refer to the chain shown, from its start. Values belong to the binder of their own block, whether it stands above or below them.

Experiments:
human TGF-β3 [1] = target: T1, human TGF-β3 (human, UniProt P10600 301-412); assay: cell-based or functional assay
T1 sequence (looked up): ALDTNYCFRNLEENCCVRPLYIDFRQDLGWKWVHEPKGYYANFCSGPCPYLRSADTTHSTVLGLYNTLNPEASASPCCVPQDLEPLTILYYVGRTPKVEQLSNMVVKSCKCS

human TGF-β1 [2] = target: T2, human TGF-β1 (human, UniProt P01137 279-390); assay: cell-based or functional assay
human TGF-β2 [3] = target: T3, human TGF-β2 (human, UniProt P61812 303-414); assay: cell-based or functional assay
T3 sequence (looked up): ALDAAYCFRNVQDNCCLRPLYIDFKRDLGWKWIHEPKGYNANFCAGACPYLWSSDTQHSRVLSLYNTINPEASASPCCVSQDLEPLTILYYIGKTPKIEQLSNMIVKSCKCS

murine TGF-β1 [4] = target: T4, murine TGF-β1 (mouse, UniProt P04202 279-390); assay: cell-based or functional assay
murine TGF-β1 [5] = target: T4, murine TGF-β1; assay: SPR (Biacore T200), Ab1 injected over immobilized TGF-β homodimer, 1:1 model
Procedure: (§1) The affinity of Ab1 for all human and murine TGF-β isoforms was determined by surface plasmon resonance on a Biacore T200 Biosensor instrument (GE Healthcare) using a dextran-coated carboxy-methylated (CM5) series S chip. Ab1 at a series of concentrations (1.11, 3.33, 10, and 30 nM) was injected onto immobilized recombinant TGF-β to measure the binding interaction in real time. The TGF-β homodimers were immobilized at a low density to reduce avidity effects. Injections were performed in triplicate and the binding assay was repeated three times. The data from the kinetic experiments were processed using the Biacore T200 Biaevaluation v2.0 software. Resulting sensorgrams were zeroed, aligned, double referenced, and cropped for curve fitting analysis using a 1:1 binding model to determine association rate constant (kₐ), dissociation rate constant (kd), and equilibrium dissociation constant (KD).

human TGF-β3 [6] = target: T1, human TGF-β3; assay: as above
Procedure: as §1

human TGF-β2 [7] = target: T3, human TGF-β2; assay: as above
Procedure: as §1

human TGF-β1 [8] = target: T2, human TGF-β1; assay: as above
Procedure: as §1

murine TGF-β2 [9] = target: T5, murine TGF-β2 (mouse, UniProt P27090 303-414); assay: as above
T5 construct: mature; Bought from R&D Systems; also called Murine and Rat TGF-β2; murine/rat TGF-β2
T5 sequence (looked up): T3 sequence (looked up) with S59T, R60K, K94N
Procedure: as §1

human TGF-β1 [10] = target: T2, human TGF-β1; assay: cell-based or functional assay; remark: listed apart in the source
murine TGF-β2 [11] = target: T5, murine TGF-β2; assay: cell-based or functional assay

T2 sequence (P01137 279-390 limits assumed): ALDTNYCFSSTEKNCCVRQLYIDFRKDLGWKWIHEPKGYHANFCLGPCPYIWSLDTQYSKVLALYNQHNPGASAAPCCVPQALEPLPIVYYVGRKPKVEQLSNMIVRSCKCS
T4 sequence (P04202 279-390 limits assumed): as the sequence (P01137 279-390 limits assumed) above, with A75S counted along it

- EC50 (read off the curve); neutralisation, Mv 1 Lu proliferation with 1 ng/ml TGF-β (human TGF-β3 [1]): ~0.4 µg/mL
- EC50 (read off the curve); neutralisation, Mv 1 Lu proliferation with 1 ng/ml TGF-β (human TGF-β1 [2]): ~7 µg/mL
- EC50 (read off the curve); neutralisation, Mv 1 Lu proliferation with 1 ng/ml TGF-β (human TGF-β2 [3]): ~6 µg/mL
- EC50 (read off the curve); neutralisation, Mv 1 Lu proliferation with 1 ng/ml TGF-β (murine TGF-β1 [4]): ~4 µg/mL
B1: 1D11 (antibody, mouse IgG1, kappa, V domains shown)
VH: HVQLQQSGPELVRPGASVKLSCKASGYIFITYWMNWVKQRPGQGLEWIGQIFPASGSTNYNEMFEGKATLTVDTSSSTAYMQLSSLTSEDSAVYYCARGDGNYALDAMDYWGQGTSVTVSS
VL: NIVLTQSPASLAVSLGQRATISCRASESVDSYGNSFMHWYQQKSGQPPKLLIYLASNLESGVPARFSGSGSRTDFTLTIDPVEADDAATYYCQQNNEDPLTFGAGTKLELKR

- Kd (murine TGF-β1 [5]): 2.8 nM
- koff (murine TGF-β1 [5]): 0.000835 s⁻¹
- kon (murine TGF-β1 [5]): 298000 M⁻¹ s⁻¹
- Kd (human TGF-β3 [6]): 1.65 nM
- koff (human TGF-β3 [6]): 0.000372 s⁻¹
- kon (human TGF-β3 [6]): 223000 M⁻¹ s⁻¹
- Kd (human TGF-β2 [7]): 3 nM
- koff (human TGF-β2 [7]): 0.000823 s⁻¹
- kon (human TGF-β2 [7]): 286000 M⁻¹ s⁻¹
- Kd (human TGF-β1 [8]): 1.48 nM
- koff (human TGF-β1 [8]): 0.000343 s⁻¹
- kon (human TGF-β1 [8]): 311000 M⁻¹ s⁻¹
- Kd (murine TGF-β2 [9]): 1.88 nM
- koff (murine TGF-β2 [9]): 0.000645 s⁻¹
- kon (murine TGF-β2 [9]): 348000 M⁻¹ s⁻¹
- EC50 (read off the curve); neutralisation, Mv 1 Lu proliferation with 1 ng/ml TGF-β (human TGF-β3 [1]): ~2 µg/mL
- EC50 (read off the curve); neutralisation, Mv 1 Lu proliferation with 1 ng/ml TGF-β (human TGF-β2 [3]): ~4 µg/mL
- fold change of luciferase activity against isotype control Ab (639440 RLU) (human TGF-β1 [10]): 1.45 fold
- fold change of luciferase activity against no Ab control (638866 RLU) (human TGF-β1 [10]): 1.45 fold
- EC50 (read off the curve); neutralisation, Mv 1 Lu proliferation with 1 ng/ml TGF-β (murine TGF-β2 [11]): ~9 µg/mL
- EC50 (read off the curve); neutralisation, Mv 1 Lu proliferation with 1 ng/ml TGF-β (murine TGF-β1 [4]): ~0.6 µg/mL
B2: Ab1 (antibody, human IgG4 S228P, kappa)
heavy: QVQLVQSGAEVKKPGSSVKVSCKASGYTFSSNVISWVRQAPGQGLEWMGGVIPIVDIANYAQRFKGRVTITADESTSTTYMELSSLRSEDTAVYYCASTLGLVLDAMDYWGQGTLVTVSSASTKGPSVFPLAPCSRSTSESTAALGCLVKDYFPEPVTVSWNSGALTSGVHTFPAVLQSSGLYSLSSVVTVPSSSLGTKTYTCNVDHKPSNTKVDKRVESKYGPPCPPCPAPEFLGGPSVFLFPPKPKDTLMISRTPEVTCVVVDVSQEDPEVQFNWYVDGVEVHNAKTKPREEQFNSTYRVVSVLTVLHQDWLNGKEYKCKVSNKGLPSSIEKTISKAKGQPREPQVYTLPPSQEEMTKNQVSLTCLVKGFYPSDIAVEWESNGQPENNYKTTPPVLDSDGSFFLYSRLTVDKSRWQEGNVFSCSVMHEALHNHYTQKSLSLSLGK
light: ETVLTQSPGTLSLSPGERATLSCRASQSLGSSYLAWYQQKPGQAPRLLIYGASSRAPGIPDRFSGSGSGTDFTLTISRLEPEDFAVYYCQQYADSPITFGQGTRLEIKRTVAAPSVFIFPPSDEQLKSGTASVVCLLNNFYPREAKVQWKVDNALQSGNSQESVTEQDSKDSTYSLSSTLTLSKADYEKHKVYACEVTHQGLSSPVTKSFNRGEC
notes: Human IgG4 with proline at position 228 (EU numbering); also called anti-TGF-β antibody Ab1

- EC50 (read off the curve); neutralisation, Mv 1 Lu proliferation with 1 ng/ml TGF-β (human TGF-β3 [1]): ~2 µg/mL
- EC50 (read off the curve); neutralisation, Mv 1 Lu proliferation with 1 ng/ml TGF-β (human TGF-β2 [3]): ~5 µg/mL
- EC50 (read off the curve); neutralisation, Mv 1 Lu proliferation with 1 ng/ml TGF-β (murine TGF-β2 [11]): ~9 µg/mL
- EC50 (read off the curve); neutralisation, Mv 1 Lu proliferation with 1 ng/ml TGF-β (murine TGF-β1 [4]): ~0.6 µg/mL
B3: fresolimumab (antibody, human IgG4, kappa)
heavy: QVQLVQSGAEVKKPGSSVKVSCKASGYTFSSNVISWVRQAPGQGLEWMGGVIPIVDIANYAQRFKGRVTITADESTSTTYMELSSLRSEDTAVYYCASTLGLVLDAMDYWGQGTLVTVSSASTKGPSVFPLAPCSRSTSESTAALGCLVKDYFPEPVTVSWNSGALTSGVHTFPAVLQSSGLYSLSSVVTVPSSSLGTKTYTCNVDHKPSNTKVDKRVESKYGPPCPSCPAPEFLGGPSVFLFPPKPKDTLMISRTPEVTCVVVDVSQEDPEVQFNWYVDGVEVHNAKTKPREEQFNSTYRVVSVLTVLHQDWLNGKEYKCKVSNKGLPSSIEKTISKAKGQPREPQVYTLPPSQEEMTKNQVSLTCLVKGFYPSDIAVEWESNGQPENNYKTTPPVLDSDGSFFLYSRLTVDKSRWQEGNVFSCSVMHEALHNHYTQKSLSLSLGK
light: B2 light
